Laboratory results as given in paper PMC3143253.
Read-outs that look alike come from different tables or passages of the source.

Key:
[1] = molecular target: IAEDANS-labeled CaM-K75C (UniProt P0DP23); experiment: other fluorescence titration
[2] = molecular target: calmodulin (UniProt P0DP23); experiment: ITC
[3] = molecular target: IAEDANS-labeled CaM-K75C (UniProt P0DP23); experiment: other fluorescence titration; remark: listed apart in the source
[4] = molecular target: TMR-conjugated CLS-S329C, reconstituted in liposomes (human); experiment: other fluorescence titration

Row | Kd [1] [µM] | Ka [2] [M⁻¹] | Kd [2] [µM] | dH [2] [kcal/mol] | stoichiometry N [2] | Kd [3] [µM] | Kd [4] [µM] | Substance
1 | 2.5 | 204000 | 4.9 | -0.77 | 0.92 | 2.1 | – | ARR18 peptide (entire cytoplasmic domain of human L-selectin)
2 | – | – | – | – | – | – | 1.7 | calmodulin (from UniProt P0DP23 1-149) (natural protein)
